Assays:
Test in all cases: quantitative flow cytometry, anti-myc staining of CD8+ T cells; ABC = number of receptors/cell; UnT T cells read ~350
[1] = molecular target: low affinity anti-Her2 SynNotch receptor (4D5 variant LOW scFv, mouse Notch1 minimal regulatory region, Gal4 DBD VP64) (mouse) (UniProt Q01705)
[2] = molecular target: high affinity anti-Her2 CAR (4D5 variant HIGH scFv, CD8 transmembrane, 41BB, CD3zeta) (UniProt P01732)
[3] = molecular target: low affinity anti-Her2 CAR (4D5 variant LOW scFv, CD8 transmembrane, 41BB, CD3zeta) (UniProt P01732)

## Anti-myc Alexa-647 (antibody)
[1]
  ABC (antibody binding capacity): 2550
[2]
  ABC (antibody binding capacity): 19000
[3]
  ABC (antibody binding capacity): 7600
